Source: patent publication US6413759

How the values were obtained:
[1] = target: T1, SKC-2-C42 (SKC-2 with deletion of the last 42 residues, 373-414)
T1 chain: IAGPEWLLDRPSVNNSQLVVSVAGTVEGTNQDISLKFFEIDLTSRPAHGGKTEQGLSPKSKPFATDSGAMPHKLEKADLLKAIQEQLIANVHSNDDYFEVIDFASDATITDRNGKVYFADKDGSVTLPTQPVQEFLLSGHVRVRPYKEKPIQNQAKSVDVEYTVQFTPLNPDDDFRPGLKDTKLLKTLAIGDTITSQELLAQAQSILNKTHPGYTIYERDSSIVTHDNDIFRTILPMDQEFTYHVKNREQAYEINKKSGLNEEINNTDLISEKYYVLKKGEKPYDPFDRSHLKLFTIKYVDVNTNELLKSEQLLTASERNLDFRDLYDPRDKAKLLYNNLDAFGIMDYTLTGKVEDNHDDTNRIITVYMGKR

[2] = target: T2, SKC-2-N13 (SKC-2 with deletion of the first 13 N-terminal residues)
T2 chain: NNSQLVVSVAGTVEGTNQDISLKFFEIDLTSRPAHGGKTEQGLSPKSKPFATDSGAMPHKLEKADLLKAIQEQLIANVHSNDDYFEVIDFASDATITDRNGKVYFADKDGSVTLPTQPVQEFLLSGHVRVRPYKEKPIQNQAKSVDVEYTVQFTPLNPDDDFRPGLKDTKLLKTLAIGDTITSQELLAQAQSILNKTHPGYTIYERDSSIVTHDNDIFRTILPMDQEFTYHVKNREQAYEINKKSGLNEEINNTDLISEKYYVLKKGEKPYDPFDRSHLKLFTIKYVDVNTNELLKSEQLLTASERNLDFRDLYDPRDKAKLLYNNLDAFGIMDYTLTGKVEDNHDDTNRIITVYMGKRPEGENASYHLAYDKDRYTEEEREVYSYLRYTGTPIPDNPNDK

B1: human plasminogen (protein)
chain: EPLDDYVNTQGASLFSVTKKQLGAGSIEECAAKCEEDEEFTCRAFQYHSKEQQCVIMAENRKSSIIIRMRDVVLFEKKVYLSECKTGNGKNYRGTMSKTKNGITCQKWSSTSPHRPRFSPATHPSEGLEENYCRNPDNDPQGPWCYTTDPEKRYDYCDILECEEECMHCSGENYDGKISKTMSGLECQAWDSQSPHAHGYIPSKFPNKNLKKNYCRNPDRELRPWCFTTDPNKRWELCDIPRCTTPPPSSGPTYQCLKGTGENYRGNVAVTVSGHTCQHWSAQTPHTHNRTPENFPCKNLDENYCRNPDGKRAPWCHTTNSQVRWEYCKIPSCDSSPVSTEQLAPTAPPELTPVVQDCYHGDGQSYRGTSSTTTTGKKCQSWSSMTPHRHQKTPENYPNAGLTMNYCRNPDADKGPWCFTTDPSVRWEYCNLKKCSGTEASVVAPPPVVLLPDVETPSEEDCMFGNGKGYRGKRATTVTGTPCQDWAAQEPHRHSIFTPETNPRAGLEKNYCRNPDGDVGGPWCYTTNPRKLYDYCDVPQCAAPSFDCGKPQVEPKKCPGRVVGGCVAHPHSWPWQVSLRTRFGMHFCGGTLISPEWVLTAAHCLEKSPRPSSYKVILGAHQEVNLEPHVQEIEVSRLFLEPTRKDIALLKLSSPAVITDKVIPACLPSPNYVVADRTECFITGWGETQGTFGAGLLKEAQLPVIENKVCNRYEFLNGRVQSTELCAGHLAGGTDSCQGDSGGPLVCFEKDKYILQGVTSWGLGCARPNKPGVYVRVSRFVTWIEGVMRNN
specific activity (agarose-fibrin plates, chromogenic substrate, clot lysis) [1]: 50000-100000 IU/mg | specific activity (agarose-fibrin plates, chromogenic substrate, clot lysis) [2]: 2000-4000 lU/mg
